Measured values from the supplement of paper PMC10567573.

B1: CAMK2D (parent)
chain: LLKHPNIVRLHDSISEEGFHYLVF
B2: ZMYND11 (parent)
chain: YCSIKCQQEHWHAEHKRTCRRKR

Variants of: B1
Test: protein stability index of a GFP-peptide fusion (GPS, HEK-293T) (PSI 1-6); higher = more stable
Conditions: c terminus: a fixed tail appended
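Further: lentivirally expressed fusions sorted by FACS into six bins by GFP to DsRed ratio, PSI derived from sequencing read proportions per bin multiplied by bin number.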

Protein stability index: each site, then its substitutions
H20: E 3.1; A 1.73; R 2.08; Q 2.65; K 2.66; P 2.08; D 1.96; C 2.07; Y 1.41; T 3.25; F 2.39; M 2.05; W 1.42; L 2.31; I 3.5; V 3.17; S 2.75
F24: D 2.21; G 2.47; W 1.22; C 1.84; A 1.62; R 2.06; N 1.51; L 2.94; Q 1.85; K 1.71; H 2.39; T 1.15; P 1.98; Y 2.28; S 2.13; V 2.12; E 1.73
H11: Y 2.88; L 1.48; N 2.29; R 2.79; F 1.96; A 2.57; I 2.7; C 2.84; S 1.8; V 1.9; W 2.62; K 3.01; Q 2.07; D 2.39; T 2.52; E 2.68; P 2.42
D12: V 2.63; L 2.47; A 2.96; R 3.07; Q 1.31; H 3.02; I 2.54; G 3.51; P 2.38; S 3; Y 2.35; T 2.59; C 3.3; F 4.12; N 1.61; K 3.1
L22: K 2.54; N 1.75; M 2.59; R 1.28; F 2.36; C 2.18; G 1.57; Y 2.02; V 1.03; I 2.96; A 3.02; T 2.39; S 1.81; P 1.81; D 2.08; W 1.88; E 2.22; Q 1.3; H 2.19
F19: E 2.38; G 1.23; M 2.08; Y 2.08; T 3.57; K 3.11; W 2.42; H 1.73; N 2.03; Q 2.66; C 1.37; A 1.81; V 1.52; D 1.73; I 2.73; P 1.53; S 1.45; R 2.02
S13: C 2.82; Y 2.94; K 2.81; N 2.13; W 1.84; A 3.1; F 1.5; E 1.47; R 1.83; H 2.91; V 3.9; D 2.46; P 2.75; Q 1.7; L 2.29; G 2.59; I 2.96
G18: S 2.3; W 1.61; T 1.87; Q 1.94; C 1.98; K 3.36; P 2.03; H 1.78; Y 1.8; E 1.63; M 2.1; N 1.5; R 3.12; D 2.39; I 2; F 2.73; L 3.43; A 3.26
Y21: I 1.79; C 2; W 2.79; H 2.03; D 2.51; Q 2.39; P 1.96; F 2.92; K 1.8; G 2.37; R 2.63; E 2.32; T 2.25; M 2.58; A 1.38; N 2.39; S 2.33; L 1.97
L10: H 2.14; K 2.02; W 3.54; Q 1.7; G 1.36; P 2.49; V 1.75; D 1.74; E 2.5; C 2.11; I 2.53; R 1.17; A 2.84; T 1.43; N 2.25; M 3.69; Y 2.95; S 1.86; F 3.99
E17: A 2.91; V 2.47; S 2.93; F 2.27; T 2.31; Y 2.04; W 2.94; K 2.71; N 3.79; R 2.11; C 2.99; G 2.8; D 2.66; L 3.59; M 4.04; P 2.75; H 1.87; Q 1.84
I14: E 2.8; Y 1.89; H 1.11; P 2.74; Q 1.78; D 1.64; W 1.4; A 1.66; G 1.64; V 2.11; M 1.18; N 2.05; R 1.75; C 2.44; T 1.91; S 2.15; K 2.4
S15: N 2.31; L 2.19; E 2.57; T 1.3; W 3.22; V 2.2; G 1.8; A 2.19; H 2.1; C 2.51; D 1.44; I 3.54; Y 2.34; K 2.45; M 3.4; F 2.56; P 2.27; R 2.66
V23: K 1.68; M 2.91; P 1.84; E 1.38; W 2.78; L 2; T 3.35; Y 1.22; G 2.12; R 3.22; S 1.85; Q 1.87; F 1.91; I 1.99; H 2.57; D 2.19; A 2.81; N 3.14
E16: K 1.21; S 1.19; N 2.87; W 1.92; T 1.39; R 1.67; P 1.62; Q 3.03; M 2.71; F 2.32; D 1.67; C 2.3; L 2.47; A 2.88; V 1.39
R9: H 2.1; L 3.22; V 1.84; Q 2.17; P 2.45; Y 2.87; N 2.7; T 1.68; W 2.69; S 2.58; M 2.74; K 3.39

Variants of: B2
Test: as above
Conditions: c terminus: native

Protein stability index of substitutions, site by site:
C2: L 2.32; H 1.54; G 2.8; A 2.1; Q 1.79; E 2.87; I 1.92; R 3.01; D 3.76; P 2.2; V 1.45; Y 2.85; N 3.64; F 2.89; S 3.1; K 2.68; M 3.01; T 3.44
S3: R 2.19; Y 1.94; Q 2.59; D 3.07; T 2.48; L 1.7; I 1.84; W 1.51; N 2.85; V 2.36; F 1.11; G 1.86; M 2.19; K 2.61; E 3.27; A 1.96; C 3.31; H 2.24; P 2.17
Y1: A 3.95; F 1.67; H 3.9; W 2.29; M 3.94; D 2.58; C 3.8; V 3.71; Q 3.91; T 3.67; E 2.91; L 2.86; I 3.23; R 3.62; S 4.09; P 3.46; N 3.79; K 3.12; G 3.74
I4: D 2.6; A 2.76; E 3.25; C 2.67
